Data published in PMC6171183 (2018).

Molecular target: T1, GST-LjBAK1cyt (Lotus japonicus, UniProt A0A2H4NR37)
T1 chain: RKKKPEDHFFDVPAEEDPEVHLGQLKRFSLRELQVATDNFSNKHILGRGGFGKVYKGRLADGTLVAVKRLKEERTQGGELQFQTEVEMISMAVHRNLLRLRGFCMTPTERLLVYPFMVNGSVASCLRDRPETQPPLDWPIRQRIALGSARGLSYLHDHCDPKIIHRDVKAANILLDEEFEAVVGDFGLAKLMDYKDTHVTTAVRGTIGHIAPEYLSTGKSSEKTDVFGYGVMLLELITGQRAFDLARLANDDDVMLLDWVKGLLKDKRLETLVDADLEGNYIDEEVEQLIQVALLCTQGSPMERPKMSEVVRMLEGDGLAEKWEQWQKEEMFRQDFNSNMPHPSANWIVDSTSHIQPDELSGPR
Assay: GST pull-down

binding result: binds
B1: HIS-NFR5cyt (protein)
chain: RRKKALNRTASSAETADKLLSGVSGYVSKPNVYEIDEIMEATKDFSDECKVGESVYKANIEGRVVAVKKIKEGGANEELKILQKVNHGNLVKLMGVSSGYDGNCFLVYEYAENGSLAEWLFSKSSGTPNSLTWSQRISIAVDVAVGLQYMHEHTYPRIIHRDITTSNILLDSNFKAKIANFAMARTSTNPMMPKIDVFAFGVLLIELLTGRKAMTTKENGEVVMLWKDMWEIFDIEENREERIRKWMDPNLESFYHIDNALSLASLAVNCTADKSLSRPSMAEIVLSLSFLTQQSSNPTLERSLTSSGLDVEDDAHIVTSITAR
